Laboratory results: patent US7629135B2, “Toll-like receptor agonists and antagonists and methods of use thereof” (The Board of Trustees of the University of Illinois, priority 2006, dated 2009)

Assays:
[1] = system: mouse macrophage cell line RAW264.7; experiment: G-CSF secretion in RAW264.7 cells (ELISA); type: cell-based; conditions: SAA 1 μM, time course
C57BL/6 mice [2] = experiment: SAA-induced neutrophilia in mice; type: in vivo, mouse
Experimental: (§1) SAA stimulates neutrophilia through G-CSF: To investigate whether SAA-induced G-CSF secretion contributes to neutrophilia, in vivo studies were conducted with daily administration of SAA in mice. C57BL/6 mice were injected subcutaneously (s.c.) with a daily dose of 120 μg SAA/kg body weight (˜3 μg of SAA each mouse) for 7 consecutive days. At different time points after the injection was initiated, blood neutrophil numbers were determined and the results were compared to neutrophil numbers prior to SAA administration. […] To establish a causal relationship between SAA-induced G-CSF production and neutrophilia in mice, wild-type C57BL/6 mice wre compared with csf3^−/− mice for changes in neutrophil count.
SAA-induced neutrophilia: For analysis of SAA-induced neutrophil increase, SAA was injected subcutaneously into both G-CSF deficient (csf3^−/−) (n=5) and csf3^+/+ (n=5), age- and sex-matched littermates (8-9 weeks, male), at doses of 120 μg/kg/d in 200 μl PBS. SAA was administered daily for 7 consecutive days (168 h). Blood samples were collected before and at 48, 120, and 168 h after the initial SAA injection. Age and sex-matched mice of both tlr2^−/− (n=7) and C57BL/6 (n=7) were also used for this experiment. Blood was collected by eye puncture using heparinized capillaries and placed into EDTA-treated tubes. Total white blood cell (WBC) count and WBC differential count were determined using a Hemavet 950FS multispecies hematology analyzer (Drew Scientific).

C57BL/6 mice [3] = experiment: Plasma G-CSF in SAA-injected mice (ELISA); type: in vivo, mouse
Experimental: as §1
Measurement of G-CSF expression: To measure the secreted G-CSF from human monocytes and mouse macrophages in vitro, cells were placed in serum-free DMEM medium and stimulated with the indicated ligands. Cell-free supernatants were collected by centrifugation at 1,000×g for 30 sec and assayed for human or mouse G-CSF using ELISA. Human PBMC were used as 2×10^6 cells/ml/sample, and mouse BMDM were seeded at 10^6 cells/ml and used as 0.5 ml/sample. To measure mouse plasma G-CSF, blood samples were collected and centrifuged at 1,000-2,000×g for 10 min at 4° C. Plasma samples were appropriately diluted and then checked for G-CSF concentration using ELISA. […] Real-time quantitative PCR was performed on a ABI PRISM 7000 Sequence Detection System (Applied Biosystems) as described previously (He et al., 2006). All data were analyzed with the ABI PRISM 7000 SDS software (version 1.1). Relative level of mRNA for G-CSF was determined by normalizing with β-actin mRNA level. […]
SAA-induced neutrophilia: For analysis of SAA-induced neutrophil increase, SAA was injected subcutaneously into both G-CSF deficient (csf3^−/−) (n=5) and csf3^+/+ (n=5), age- and sex-matched littermates (8-9 weeks, male), at doses of 120 μg/kg/d in 200 μl PBS. […] Total white blood cell (WBC) count and WBC differential count were determined using a Hemavet 950FS multispecies hematology analyzer (Drew Scientific).

TLR2-HeLa cells [4] = experiment: IL-8 secretion in TLR2-HeLa cells (ELISA); type: cell-based, human; conditions: SAA 1 μM, up to 24 hours
Experimental: FIG. 7 is a series of studies showing SAA-induced response in transfected HeLa cells. […] Pam3CSK4 is a known agonist for TLR2 and was used as a control. […] FIG. 7B is time course of SAA-induced IL-8 secretion in TLR2-HeLa cells compared to mock-transfected HeLa cells. SAA was used at 1 μM and the cells were stimulated for up to 24 hours. The supernatant was collected and secreted IL-8 was measured using ELISA.
In addition to the TLR2-HeLa cell line, a HeLa cell line stably expressing TLR2 and a 5xNF-κB luciferase reporter (pNF-kappaB-Luc, FIG. 13) was generated. This second cell line offers improved consistency between experiments by eliminating the need for transiently transfecting the NF-κB reporter each time an reporter assay is conducted. […] The TNFαc-stimulated reporter activity was used as an independent indicator for comparison. Both cell lines have been and will be used in characterization of SAA-induced functions and in screening assays. […] The TLR2-independent effect in IL-8 secretion was determined in parallel, in mock-transfected HeLa cells lacking the exogenous TLR2 (FIG. 7B).

TLR2-HeLa cells [5] = experiment: MAP kinase phosphorylation and IκBα degradation in TLR2-HeLa cells (Western blotting); type: cell-based, human
Experimental: FIG. 8 is a series of protein gels and corresponding Western blotting graphs showing that SAA-induced TLR2-dependent signaling in transfected cells. Serum-starved TLR2-HeLa and mock-transfected HeLa cells were stimulated with SAA (1 μM) or Pam3CSK4 (1 μg/ml) for the indicated time. The phosphorylation level of ERK1/2 (A), p38 (B) and JNK (C) was detected by Western blotting using antibodies recognizing the phosphorylated forms of the MAP kinases (blots). (D) The level of cytoplasmic IκB ? was detected by Western blotting using an anti-IκB ? antibody and the β-actin levels in the corresponding samples were shown as loading controls. […] A representative set of data, from 3 repeating experiments, is presented.

B1: SAA: Recombinant human SAA purchased from PeproTech; major acute-phase protein of 104 amino acids (protein, UniProt P0DJI8 19-122, looked up)
Serum amyloid A-1 protein: RSFFSFLGEAFDGARDMWRAYSDMREANYIGSDKYFHARGNYDAAKRGPGGAWAAEVITDARENIQRFFGHGAEDSLADQAANEWGRSGKDPNHFRPAGLPEKY
For B1, the G-CSF production [1] was “time-dependent production of G-CSF”, the “peripheral blood neutrophil numbers” value (C57BL/6 mice [2]; C57BL/6 mice, SAA 120 μg/kg s.c. daily for 7 days, vs PBS, from 48 h) was “significant rise of neutrophil numbers” and the “SAA-stimulated increase in peripheral blood neutrophils in tlr2−/− mice vs wild-type” value (C57BL/6 mice [2]; SAA s.c. up to 7 days) was “significantly lower”. For the same molecule, the “peripheral blood neutrophil count response in csf3−/− mice vs wild-type” value (C57BL/6 mice [2]; csf3−/− mice, SAA 120 μg/kg/d s.c., 48, 120 and 168 h) was “significantly reduced response”, the “plasma G-CSF level” value (C57BL/6 mice [3]; C57BL/6 mice, SAA 120 μg/kg s.c. daily, end of 7 days) was “significantly elevated G-CSF level” and the “plasma G-CSF in tlr2−/− mice vs wild-type” value (C57BL/6 mice [3]; SAA s.c. up to 7 days, 168 h) was “significantly less G-CSF”. The “plasma concentration of G-CSF, maximum” value (C57BL/6 mice [3]; SAA-injected C57BL/6 mice, 168 h) was 97 pg/mL, the “secretion of IL-8” value (TLR2-HeLa cells [4]) was “time-dependent increase in the secretion of IL-8” and the IκBα degradation (TLR2-HeLa cells [5]; TLR2-HeLa cells, SAA 1 μM) was “IκBα degradation”. For the same molecule, the “phosphorylation of MAP kinases ERK1/2, p38 and JNK” value (TLR2-HeLa cells [5]; TLR2-HeLa cells, SAA 1 μM) was “robust phosphorylation”, the “ERK1/2 phosphorylation in mock-transfected cells” value (TLR2-HeLa cells [5]; mock-transfected HeLa cells, 10 min, SAA 1 μM, Pam3CSK4 1 μg/ml) was “induced ERK1/2 phosphorylation” and the “IκBα degradation in mock-transfected cells” value (TLR2-HeLa cells [5]; mock-transfected HeLa cells, SAA stimulation) was “No IκBα degradation”.
